According to patent publication US12559560B2, “Antibody-based compositions for targeting tropomyosin receptor kinase B (TrkB) isoforms” (Fred Hutchinson Cancer Center, priority 2020, dated 2026):

Assays:
Type in all cases: binding
[1] = molecular target: T1, full length TrkB.T1 protein (Mus musculus, UniProt P15209); test: Wes capillary Western blot of mouse brain detergent extracts (antibody screening Stage 2); details: normal and KO mouse brain detergent extracts; monoclonal culture super diluted 1:2
T1 construct: mouse brain lysates from TrkB.T1^+/+ and TrkB.T1^−/− mice were prepared by mechanical disruption; from tissue; host or cells: mouse brain (TrkB.T1+/+ wild type; TrkB.T1-/- as negative control)
Description: Wes™ capillary electrophoresis for antibody development. Protein Simple Wes™ was used at two stages of antibody screening: Stage 1, selecting immunized mice to advance for hybridoma generation, and Stage 2, for validation of monoclonal antibodies that Western blot full-length TrkB.T1 protein in murine brain detergent extracts. Briefly, mouse brain lysates from TrkB.T1^+/+ and TrkB.T1^−/− mice were prepared by mechanical disruption (Dounce tissue homogenizer, Kimble Chase) in RIPA lysis buffer (Pierce™ RIPA Lysis and Extraction Buffer, ThermoScientific™) containing HALT™ Protease and Phosphatase Inhibitor Cocktail and EDTA (ThermoScientific™) and normalized to 2 μg/μl total protein via Bradford Protein Assay. Approximately 8-10 ng total brain extract protein was loaded into the Protein Simple Capillary WES system for Western analysis following Protein Simple recommended methods (Rustandi, R. R., et al. Applications of an automated and quantitative CE-based size and charge western blot for therapeutic proteins and vaccines. Methods Mol. Biol. 1466, 197-217 (2016)). Mice with antisera (1:2500 dilution in PBS and Antibody Diluent (Protein Simple)) that identified a positive band at 90-100 kDa for the TrkB.T1 protein were advanced forward for final boosting, splenectomy, and hybridoma generation (FIG. 3B). […]

[2] = molecular target: T2, TrkB.T1 (Homo sapiens, UniProt Q16620); test: TrkB.T1 immunohistochemistry on human brain
T2 construct: To determine endogenous localization of TrkB.T1 in human brain, a monoclonal antibody; from tissue; host or cells: normal human brain (rapid autopsy, FFPE sections)
Description: (§1) Antibody validation phase—large batch IHC. Four-μm sections of a multi-tissue block containing human brain, mouse brain, TrkB.T1^−/− mouse brain, a cell pellet over-expressing TrkB.T1 and a cell pellet without TrkB.T1 were cut and stained with the Leica Bond Rx (Leica Biosystems, Buffalo Grove, IL). Slides were pretreated with H2 antigen retrieval buffer for 20 min. Endogenous peroxidase was blocked with 3% hydrogen peroxide for 5 min. A TCT protein block was applied for 10 min (0.05 M Tris, 0.15 M NaCl, 0.25% Casein, 0.1% Tween 20, pH 7.6). Supernatants from multiple boosting and pre-/post-fusion samples, along with antibody clone D12 were used at 1:20 and applied to the tissue for 30 min. The antibody was then detected using Leica Power Vision HRP Mouse specific polymer (Leica Biosystems catalog #PV6114) for 12 min and staining was visualized with Refine DAB (Leica Biosystems catalog #D59800) and a hematoxylin counterstain was used (Hematoxylin 50% in H2O from Biocare catalog #NM-HEM-M). Mouse isotype control slides were included for each run (Jackson ImmunoResearch Laboratories) at 2 μg/ml. Digital images of IHC-stained slides were obtained at ×40 magnification (0.25 μm/pixel) using a whole slide scanner (ScanScope AT Turbo, Aperio) fitted with a 20×/0.75 Plan Apo objective lens and ×2 magnification changer (Olympus, Center Valley, Pa., USA). […]

[3] = molecular target: T3, TrkB.T1 (Mus musculus, UniProt P15209); test: TrkB.T1 immunohistochemistry on mouse brain / mouse tumors
T3 construct: from tissue; host or cells: formalin-fixed paraffin-embedded mouse brain and RCAS/tv-a mouse gliomas
Description: as §1

T3 sequence (P15209 32-476 isoform P15209-2 limits assumed): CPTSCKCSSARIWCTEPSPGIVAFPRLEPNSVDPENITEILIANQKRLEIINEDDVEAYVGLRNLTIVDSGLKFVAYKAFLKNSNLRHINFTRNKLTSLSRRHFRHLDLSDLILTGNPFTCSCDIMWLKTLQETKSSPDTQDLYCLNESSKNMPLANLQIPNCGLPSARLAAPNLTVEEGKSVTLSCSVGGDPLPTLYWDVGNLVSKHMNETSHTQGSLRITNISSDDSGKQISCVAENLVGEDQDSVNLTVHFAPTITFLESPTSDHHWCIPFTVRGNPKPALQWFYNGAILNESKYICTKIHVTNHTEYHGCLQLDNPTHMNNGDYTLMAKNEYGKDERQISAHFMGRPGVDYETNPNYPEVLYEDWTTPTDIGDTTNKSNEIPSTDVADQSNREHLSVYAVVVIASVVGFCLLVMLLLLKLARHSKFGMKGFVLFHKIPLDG
T2 sequence (Q16620 32-477 isoform Q16620-2 limits assumed): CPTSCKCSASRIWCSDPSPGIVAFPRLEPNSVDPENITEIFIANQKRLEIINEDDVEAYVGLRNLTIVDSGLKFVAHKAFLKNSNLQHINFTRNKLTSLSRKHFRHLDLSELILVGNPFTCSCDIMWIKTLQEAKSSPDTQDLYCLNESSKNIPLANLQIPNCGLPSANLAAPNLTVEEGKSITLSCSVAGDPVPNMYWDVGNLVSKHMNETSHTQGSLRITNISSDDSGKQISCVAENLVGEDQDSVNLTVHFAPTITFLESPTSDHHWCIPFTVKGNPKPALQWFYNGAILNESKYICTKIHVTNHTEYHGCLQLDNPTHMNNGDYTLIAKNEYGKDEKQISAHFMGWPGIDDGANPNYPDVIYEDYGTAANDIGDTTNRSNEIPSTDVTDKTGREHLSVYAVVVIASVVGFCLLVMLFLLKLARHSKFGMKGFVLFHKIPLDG
T1 sequence (P15209 32-476 isoform P15209-2 limits assumed): as the sequence (P15209 32-476 isoform P15209-2 limits assumed) above

B1: Clone FH1D12: Murine monoclonal antibody to the TrkB.T1 C-terminal peptide … (SEQ ID NO:1), raised in TrkB.T1 null mice (antibody, V domains shown)
VL: QTVVTQESALTTSPGETVTLTCRSSTGAVTTSNYANWVQEKPDHLFTGLIGGINNRAPGVPARFSGSLIGDKAVLTITGAQTEDEAIYFCALWYSNHWVFGGGTKLTVL
VH: VQLQQSGPELARPWASVKISCQAFYTFSRGIHFDIRNTMYWIQWVKQRPGQGLEWIGAIYPGNGDPTYSQNFKDKATLTADKSSNTAYMQLSSLTSEDSAVYYCARYDYGGGFTYWGQGTLVTVSAGS
Question: Which results are given for B1?
Answer: Western blotting activity (full length TrkB.T1 protein) [1]: positive; immunostaining in human brain [2]: positive; staining in TrkB.T1-/- knockout mouse brain ([3]; TrkB.T1-/- knockout mouse brain (specificity control)): absent; immunostaining in wild-type (WT) mouse brain ([3]; wild-type mouse brain): positive
